Measurements as given in paper doi:10.1101/2021.12.07.471597 (bioRxiv, 2021).

How the values were obtained:
[1] = target: biotinylated SARS-CoV-2 RBD (Wuhan) (SARS-CoV-2, UniProt P0DTC2, biotin); assay: flow cytometry on cells
VHH72.71-Fc = VHH72.71-Fc (llama); assay: BLI
VHH72.76-Fc = VHH72.76-Fc (llama); assay: BLI
VHH72-Fc = VHH72-Fc (llama); assay: BLI
VHH72.6-Fc = VHH72.6-Fc (llama); assay: BLI
VHH72.65-Fc = VHH72.65-Fc (llama); assay: BLI
VHH72.66-Fc = VHH72.66-Fc (llama); assay: BLI

Measured: binding result

B1: VHH72 displayed on yeast (VHH)
VHH: QVQLQESGGGLVQAGGSLRLSCAASGRTFSEYAMGWFRQAPGKEREFVATISWSGGSTYYTDSVKGRFTISRDNAKNTVYLQMNSLKPDDTAVYYCAAAGLGTVVSEWDYDYDYWGQGTQVTVSS
binds: [1]

B2: SARS-CoV-1 RBD (domain or fragment)
chain: not shown
not listed: [1]
binds: all other assays above
